Starred links: 1 amine or outer side, 2 acyl side, 3 side chain; linkers in the order of their positions; H or OH if unused. Non-standard residues stand in square brackets, D forms with d. dProc4Bn4Br = (2R,4R)-4-[(4-bromophenyl)methyl]pyrrolidine-2-carboxylic acid, O=C([C@H]1C[C@@H](Cc2ccc(Br)cc2)CN1[*:1])[*:2]; Trp4Az = (2S)-2-amino-3-(1H-pyrrolo[3,2-b]pyridin-3-yl)propanoic acid, O=C([C@H](Cc1c[nH]c2cccnc12)N[*:1])[*:2]; Trp(4-Cl)(βS-Me) = C[C@@H](c1c[nH]c2cccc(Cl)c12)[C@H](N)C(=O)O; dPro(4R-(4-pyridylmethyl)) = O=C(O)[C@H]1C[C@@H](Cc2ccncc2)CN1; dPro(3S-(4-Br-benzyl)) = O=C(O)[C@@H]1NCC[C@@H]1Cc1ccc(Br)cc1; Trp(βS-Me,4-F) = C[C@@H](c1c[nH]c2cccc(F)c12)[C@H](N)C(=O)O; Bip(4'-COOH) = N[C@@H](Cc1ccc(-c2ccc(C(=O)O)cc2)cc1)C(=O)O; Ala(1-bicyclo(1.1.1)pentyl) = N[C@@H](CC12CC(C1)C2)C(=O)O; dPro(4R-Bzl(4-F)) = O=C(O)[C@H]1C[C@@H](Cc2ccc(F)cc2)CN1; 1Nal(3S-Me) = C[C@@H](c1cccc2ccccc12)[C@H](N)C(=O)O; Ala(pyrimidin-5-yl) = N[C@@H](Cc1cncnc1)C(=O)O; Phe(4-COOH) = N[C@@H](Cc1ccc(C(=O)O)cc1)C(=O)O; dαMeDab = C[C@](CCN[*:3])(N[*:1])C(=O)[*:2]; Pro(cis-4-F) = O=C(O)[C@@H]1C[C@H](F)CN1; Ala(4-THP) = N[C@@H](CC1CCOCC1)C(=O)O; cisHyp = O=C(O)[C@@H]1C[C@H](O)CN1; d(αMeD) = C[C@@](N)(CC(=O)O)C(=O)O; d(αMeK) = C[C@@](N)(CCCCN)C(=O)O; 4Pal = N[C@@H](Cc1ccncc1)C(=O)O; Cba = N[C@@H](CC1CCC1)C(=O)O; αMeK = C[C@](N)(CCCCN)C(=O)O; hSer = N[C@@H](CCO)C(=O)O; Orn = NCCC[C@H](N)C(=O)O; Dab = NCC[C@H](N)C(=O)O; Dap = NC[C@H](N)C(=O)O; Aib = CC(C)(N)C(=O)O
B1: SEQ ID NO: 143 (peptide)
peptide: cyclo([Bip(4'-COOH)][4Pal][Phe(4-COOH)]G[Pro(cis-4-F)][Trp(βS-Me,4-F)][Aib]EW[Aib][Ala(pyrimidin-5-yl)]Q[Dab]G[dProc4Bn4Br])
modifications: ring closure inferred; not fully specified (bridges); printed as Bip4CO2H-4Pal-Phe4COOH-G-Proc4F-sbMeW4F-Aib-E-W-Aib-PyrimAla-Q-Dab-G-dProc4Bn4Br, cyclic (macrolactam)
B2: SEQ ID NO: 147 (peptide)
peptide: cyclo([Bip(4'-COOH)][Ala(1-bicyclo(1.1.1)pentyl)][Phe(4-COOH)]G[Pro(cis-4-F)][Trp(βS-Me,4-F)][Aib][hSer]W[αMeK][Ala(pyrimidin-5-yl)]Q[Dab]G[dPro(4R-Bzl(4-F))])
modifications: ring closure inferred; not fully specified (bridges); printed as Bip4CO2H-AlaPent-Phe4COOH-G-Proc4F-SbMeW4F-Aib-hS-W-aMeK-PyrimAla-Q-Dab-G-dProc4Bn4F, cyclic (macrolactam)
B3: SEQ ID NO: 149 (peptide)
peptide: cyclo([Bip(4'-COOH)][4Pal][Phe(4-COOH)]G[Pro(cis-4-F)][1Nal(3S-Me)][Aib]EW[Aib][Ala(pyrimidin-5-yl)]Q[Dab]G[dPro(4R-Bzl(4-F))])
modifications: ring closure inferred; not fully specified (bridges); printed as Bip4CO2H-4Pal-Phe4COOH-G-Proc4F-sbMe1Nal-Aib-E-W-Aib-PyrimAla-Q-Dab-G-dProc4Bn4F, cyclic (macrolactam)
B4: SEQ ID NO: 145 (peptide)
peptide: cyclo([Bip(4'-COOH)][Ala(1-bicyclo(1.1.1)pentyl)][Phe(4-COOH)]G[Pro(cis-4-F)][Trp(βS-Me,4-F)][Aib]SW[d(αMeK)][Ala(pyrimidin-5-yl)]Q[Dab]G[dPro(4R-Bzl(4-F))])
modifications: ring closure inferred; not fully specified (bridges); printed as Bip4CO2H-AlaPent-Phe4COOH-G-Proc4F-SbMeW4F-Aib-S-W-daMeK-PyrimAla-Q-Dab-G-dProc4Bn4F, cyclic (macrolactam)
B5: SEQ ID NO: 148 (peptide)
peptide: cyclo([Bip(4'-COOH)][4Pal][Phe(4-COOH)]G[Pro(cis-4-F)][Trp(4-Cl)(βS-Me)][Aib]EW[Aib][Ala(pyrimidin-5-yl)]Q[Dab]G[dPro(4R-Bzl(4-F))])
modifications: ring closure inferred; not fully specified (bridges); printed as Bip4CO2H-4Pal-Phe4COOH-G-Proc4F-sbMeW4Cl-Aib-E-W-Aib-PyrimAla-Q-Dab-G-dProc4Bn4F, cyclic (macrolactam)
B6: SEQ ID NO: 146 (peptide)
peptide: cyclo([Bip(4'-COOH)][Ala(1-bicyclo(1.1.1)pentyl)][Phe(4-COOH)]G[Pro(cis-4-F)][Trp(βS-Me,4-F)][Aib]SW[αMeK][Ala(4-THP)]Q[Dab]G[dPro(4R-Bzl(4-F))])
modifications: ring closure inferred; not fully specified (bridges); printed as Bip4CO2H-AlaPent-Phe4COOH-G-Proc4F-SbMeW4F-Aib-S-W-aMeK-AlaTHP4-Q-Dab-G-dProc4Bn4F, cyclic (macrolactam)
B7: SEQ ID NO: 142 (peptide)
peptide: cyclo([Bip(4'-COOH)][4Pal][Phe(4-COOH)]G[Pro(cis-4-F)][Trp(βS-Me,4-F)][Aib]SW[dαMeDab][Ala(pyrimidin-5-yl)]Q[Dab]G[dPro(4R-Bzl(4-F))])
modifications: ring closure inferred; not fully specified (bridges); printed as Bip4CO2H-4Pal-Phe4COOH-G-Proc4F-SbMeW4F-Aib-S-W-daMeDab-PyrimAla-Q-Dab-G-dProc4Bn4F
B8: SEQ ID NO: 144 (peptide)
peptide: cyclo([Bip(4'-COOH)][Ala(1-bicyclo(1.1.1)pentyl)][Phe(4-COOH)]G[Pro(cis-4-F)][Trp(βS-Me,4-F)][Aib]SW[αMeK][Ala(pyrimidin-5-yl)]Q[Dab]G[dPro(4R-Bzl(4-F))])
modifications: ring closure inferred; not fully specified (bridges); printed as Bip4CO2H-AlaPent-Phe4COOH-G-Proc4F-SbMeW4F-Aib-S-W-aMeK-PyrimAla-Q-Dab-G-dProc4Bn4F, cyclic (macrolactam)

The binders below were run against Recombinant human IL-1β (BioLegend 579404) (human, UniProt P01584 117-269) (assay: cell-based or functional assay).
In the case of cyclo([Bip(4'-COOH)][Ala(1-bicyclo(1.1.1)pentyl)][Phe(4-COOH)]G[Pro(cis-4-F)][Trp(βS-Me,4-F)][Aib]SW[d(αMeD)][Ala(pyrimidin-5-yl)]Q[Dab]G[dPro(4R-(4-pyridylmethyl))]) (ring closure inferred) [SEQ ID NO: 155], the “MRC5 IC50” value is reported as 0.011 nM. For cyclo([Bip(4'-COOH)][4Pal][Phe(4-COOH)]G[Pro(cis-4-F)][Trp(βS-Me,4-F)][Aib]EW[Aib][Ala(pyrimidin-5-yl)]Q[Dap]G[dPro(3S-(4-Br-benzyl))]) (ring closure inferred) [SEQ ID NO: 150], the “MRC5 IC50” value was 0.019 nM. In the case of cyclo([Bip(4'-COOH)][Ala(1-bicyclo(1.1.1)pentyl)][Phe(4-COOH)]G[cisHyp][Trp(βS-Me,4-F)][Aib]SW[d(αMeD)][Ala(pyrimidin-5-yl)]QSG[dPro(4R-(4-pyridylmethyl))]) (ring closure inferred) [SEQ ID NO: 157], the “MRC5 IC50” value is reported as 0.038 nM. In the case of cyclo([Bip(4'-COOH)][4Pal][Phe(4-COOH)]G[Pro(cis-4-F)][Trp(βS-Me,4-F)][Aib]EW[Aib][Ala(pyrimidin-5-yl)]QKG[dPro(3S-(4-Br-benzyl))]) (ring closure inferred) [SEQ ID NO: 152], the “MRC5 IC50” value is reported as 0.031 nM. In the case of B1, the “MRC5 IC50” value is reported as 0.026 nM. In the case of B2, the “MRC5 IC50” value is reported as 0.045 nM. cyclo([Bip(4'-COOH)][4Pal][Phe(4-COOH)]G[Pro(cis-4-F)][1Nal(3S-Me)][Aib]EW[Aib][Ala(pyrimidin-5-yl)]Q[Dab]G[dPro(3S-(4-Br-benzyl))]) (ring closure inferred) [SEQ ID NO: 153] was tested, and the “MRC5 IC50” value was 0.019 nM. With cyclo([Bip(4'-COOH)][Ala(1-bicyclo(1.1.1)pentyl)][Phe(4-COOH)]G[Pro(cis-4-F)][Trp(βS-Me,4-F)][Aib]SW[d(αMeD)][Ala(pyrimidin-5-yl)]QSG[dPro(4R-(4-pyridylmethyl))]) (ring closure inferred) [SEQ ID NO: 158] the “MRC5 IC50” value was 0.013 nM. cyclo([Bip(4'-COOH)][4Pal][Phe(4-COOH)]G[cisHyp][Trp(βS-Me,4-F)][Aib]SW[d(αMeD)][Ala(pyrimidin-5-yl)]QSG[dPro(4R-(4-pyridylmethyl))]) (ring closure inferred) [SEQ ID NO: 161] was tested, and the “MRC5 IC50” value was 0.019 nM. cyclo([Bip(4'-COOH)][4Pal][Phe(4-COOH)]G[Pro(cis-4-F)][Trp(βS-Me,4-F)][Aib]SW[d(αMeD)][Ala(pyrimidin-5-yl)]Q[Dab]G[dPro(4R-(4-pyridylmethyl))]) (ring closure inferred) [SEQ ID NO: 154] was tested, and the “MRC5 IC50” value was 0.011 nM. With B3 the “MRC5 IC50” value was 0.024 nM. For cyclo([Bip(4'-COOH)][Cba][Phe(4-COOH)]G[Pro(cis-4-F)][Trp(βS-Me,4-F)][Aib]SW[Aib][Ala(pyrimidin-5-yl)]Q[Dab]G[dPro(4R-(4-pyridylmethyl))]) (ring closure inferred) [SEQ ID NO: 163], the “MRC5 IC50” value was 0.03 nM. B4 was tested, and the “MRC5 IC50” value was 0.041 nM. In the case of cyclo([Bip(4'-COOH)][4Pal][Phe(4-COOH)]G[Pro(cis-4-F)][Trp(βS-Me,4-F)][Aib]EW[Aib][Ala(pyrimidin-5-yl)]Q[Orn]G[dPro(3S-(4-Br-benzyl))]) (ring closure inferred) [SEQ ID NO: 151], the “MRC5 IC50” value is reported as 0.022 nM. In the case of B5, the “MRC5 IC50” value is reported as 0.032 nM. With cyclo([Bip(4'-COOH)][4Pal][Phe(4-COOH)]G[Pro(cis-4-F)][Trp(βS-Me,4-F)][Aib]SW[d(αMeD)][Ala(pyrimidin-5-yl)]QSG[dPro(4R-(4-pyridylmethyl))]) (ring closure inferred) [SEQ ID NO: 156] the “MRC5 IC50” value was 0.015 nM. In the case of cyclo([Bip(4'-COOH)][Ala(1-bicyclo(1.1.1)pentyl)][Phe(4-COOH)]G[cisHyp][Trp(βS-Me,4-F)][Aib]SW[d(αMeD)][Ala(pyrimidin-5-yl)]Q[Dab]G[dPro(4R-(4-pyridylmethyl))]) (ring closure inferred) [SEQ ID NO: 160], the “MRC5 IC50” value is reported as 0.023 nM. cyclo([Bip(4'-COOH)][4Pal][Phe(4-COOH)]G[cisHyp][Trp(βS-Me,4-F)][Aib]SW[d(αMeD)][Ala(pyrimidin-5-yl)]Q[Dab]G[dPro(4R-(4-pyridylmethyl))]) (ring closure inferred) [SEQ ID NO: 159] was tested, and the “MRC5 IC50” value was 0.013 nM. For B6, the “MRC5 IC50” value was 0.034 nM. For B7, the “MRC5 IC50” value was 0.019 nM. With cyclo([Bip(4'-COOH)][4Pal][Phe(4-COOH)]G[Pro(cis-4-F)][Trp(βS-Me,4-F)][Aib]S[Trp4Az][Aib][Ala(pyrimidin-5-yl)]Q[Dab]G[dPro(4R-(4-pyridylmethyl))]) (ring closure inferred) [SEQ ID NO: 162] the “MRC5 IC50” value was 0.05 nM. With B8 the “MRC5 IC50” value was 0.031 nM.
